# From the DeepSol protein solubility set
# Test: soluble on expression in E. coli; label from the status in PepcDB or PDB records
row,Sequence,soluble on expression in E. coli
1,MGSDKIHHHHHHMANNYMKRKDRIILTAVEIIDQLGVQGLTIREIASRQEISEAAIYRHFANKSEILLGTIDYFSSYDALLFRTIESQNMKAWEGITFLLASYTEYYENYPAITAVTFTQEAFQLEPEARERMENVIDNRLRFIKQMVIKGQKEGEFTRDICSEGIVDIIFGTVQFIILRWRAKNYDFALKEHVLSTLSILIEAFSTVKLENRFAWGGVFNQEVSSSTFDSVLTRPGLFLEKGKDQVNEKSEG,not soluble
2,MGSDKIHHHHHHMKVAYVIGGLPFGGVESWLLDLARHVSKTSDFECRVFNVSGTGVKMPEYISSGVDVVCAGNSLDSIATHRIDTVLRLRSQLVEYAPDIIHTLHFSGDYCGRLASIGLGVPVVTHLRNIKCERKLRRRLANKLLSFFTDMYLSVSRAVADMVADDHNIAKRPSRVIYNAVDPQKLAVEPHDLTAMYGVSGRIVVGVGRYVGQKNFDLLLRALRLVLDEGHDISVVLVGEGGERPHLERLIRELSLEGHAVLTGYRQDVPRFLRASYALAMPSDFEGLPITHLEAMFCGLPAIVSRHVPSLEIAREASLVCKRSPESIAQCIIRLLEDEKLHSTLSNTGSRIASEHTMDLYIKTLKGIYDELASRGKEI,not soluble
3,MSLGISNAIDNSVRARVLGIKTEFRNFNTGRTFFLPQHVALLGQGNTAATYELTPFRATSAAQVGQRFGFGSPLHLAALQLLPDNNDGLRSIPLTIFPMGDNDAGVAAEGVLDLSGTASATATVRVRIGSQRSSLVTIPTGTTAEQAAALLVAGIQGNPFMPMTAAVDGTNANEVDVTAKWQGLSGNDLVVSIEGSIPGITVAITQPTGGAADPEVADTLALFGENVWYTQIVSCFNTANTDALDAFETFGEGRWDPILRRPLAVFTGTNETDPNTLAAIGDARRAQRTNLVTPVPGAQNLPCEIAAAWVARVARSANNDPASDFARLTLPGLTPGTDAQQWTHTQRDLLVKAGISTSIVRDGVAEISDTVTTYHPTGEVNPGYLFYKDTVKASNVLFNLDLIFNTREWDGAPLIPDDQPTTNARAKRPKDAVAVLSVLANNLGLDAIISDVPFTLENIRASINDQNPNRLDIIFPAKNSGNANIISADYFFGFFLGTEGHHHHHH,soluble
4,MDEIEKNNGEIIIYRTEDGRTQLEVRLENENVWLSQQQMSELFQTSRTNIVEHIKHIFEEGELEENSTCQIFRQVRIEGTRKVERSIPFYNLDMIISLGYRVKSRVATHFRRWATERLKEYLIKGFAMDDQRLKEIGGGGYWYELLNRIRDIRSSEKVLYRQVLDLYATSVDYDPKADESIRFFKIVQNKLHYAAHGHTAAEVIFERADAEKPFMGLATFPGEQPRKEDVLIAKNYLNEKELKILNNLVSGYFDFAEIQAIKRSPMYMSDYIHHLDLILSTTGEQVLQNAGTISHEQAKQKALGEYRKYHVKTLSPVEEAYFDSIKKLTAETKKKKKK,not soluble
5,YLASDGKTIIMVGRNNLQNEELTFKIAKKGELWFHAKDIPGSHVVIKDNLNPTDEVKTDAAELAAYYSKARLSNLVQVDMIDVKKLNK,not soluble
6,GPLGSPRYELGEELRDKIKQEPSFSNMVSAKKFYNKAIKDFTAPKEGAEVVSVKTHIMRPIDFMLMGLREEFNLYSEDGAHLSAPGTIRLLREKNLLPEEQIARIESVYNQAMSKRFELHAEHKKEHDEMPYSDAKAMLDEVAKIRELGVQRVTRIENLENAKKLWDNANSMLEKGNISGYLKAANELHKFMKEKNLKEDDLRPELSDKTISPKGYAILQSLWGAASDYSRAAATLTESTVEPGLVSAVNKMSAFFMDCKLSPNERATPDPDFKVGKSKILVGIMQFIKDVADPTSKIWMHNTKALMNHKIAAIQKLERSNNVNDETLESVLSSKGENLSEYLSYKYATKDEGREHRYTASTE,soluble
7,MESLTLQPIARVDGTINLPGSKSVSNRALLLAALAHGKTVLTNLLDSDDVRHMLNALTALGVSYTLSADRTRCEIIGNGGPLHAEGALELFLGNAGIAMRSLAAALCLGSNDIVLTGEPRMKERPIGHLVDALRLGGAKITYLEQENYPPLRLQGGFTGGNVDVDGSVSSQFLTALLMTAPLAPEDTVIRIKGDLVSKPYIDITLNLMKTFGVEIENQHYQQFVVKGGQSYQSPGTYLVEGDASSASYFLAAAAIKGGTVKVTGIGRNSMQGDIRFADVLEKMGATICWGDDYISCTRGELNAIDMDMNHIPDAAMTIATAALFAKGTTTLRNIYNWRVKETDRLFAMATELRKVGAEVEEGHDYIRITPPEKLNFAEIATYNDHRMAMCFSLVALSDTPVTILDPKCTAKTFPDYFEQLARISQAA,soluble
8,MGSDKIHHHHHHMNLLSPSDPIVLSTAYLPPIQYFTKLLHPEGVLLETAENFVKQSYRNRCHIAGPEGMQPLTIPVEKSPSPKAPIRDIRISEHGNWRHLHLNALISSYGSAPFFDHYMTEIEPFYRHKYTFLWDFNLDLLSVCLEWLDISPLIMFTFEYVEDCPNDFRYSIRPKQAPEDESFRPRVYYRTFAHKYGFLPNLSIVDLIFHEGPSAIQTLKECIR,not soluble
9,AEVRPPFTYASLIRQAILESPEKQLTLNEIYNWFTRMFPYFRRNAATWKNAVRHNLSLHKYFVRVENVKGAVWTVDEVEFQKRRPQK,soluble
10,GAMEVIKNPKVFIDPLSVFKEIPFREDILRDAAIAIRYFVKNEVKFSNLFLGLTGTGKTFVSKYIFNEIEEVKKEDEEYKDVKQAYVNCREVGGTPQAVLSSLAGKLTGFSVPKHGINLGEYIDKIKNGTRNIRAIIYLDEVDTLVKRRGGDIVLYQLLRSDANISVIMISNDINVRDYMEPRVLSSLGPSVIFKPYDAEQLKFILSKYAEYGLIKGTYDDEILSYIAAISAKEHGDARKAVNLLFRAAQLASGGGIIRKEHVDKAIVDYEQERLIEAVKALPFHYKLALRSLIESEDVMSAHKMYTDLCNKFKQKPLSYRRFSDIISELDMFGIVKIRIINRGRAGGVKKYALVEDKEKVLRALNETFEDSISIGDFDDVGEN,soluble
11,ADNEEDVEAEEEYTELTDISGVGPSKAESLREAGFESVEDVRGADQSALADVSGIGNALAARIKADVGGLEVESETEAEVEEEGGEEAPDEDVETELQARGLTEKTPDLSDEDARLLTQRHRVGKPQFNRQDHHKKKRVSTSWRKPRGQLSKQRRGIKGKGDTVEAGFRSPTAVRGKHPSGFEEVRVHNVDDLEGVDGDTEAVRIASKVGARKRERIEEEAEDAGIRVLNPTYVEVEVSE,soluble
12,MAAAKIKKGDTVLVVRGKEKGKQGKVLKVYERVKRRDKQGNPVYVRHFVIVEGVRLIKKHVKPIEGVREGGIIETEGPIDISNVMLICPNCNKPTRVGFRIVEEGNVRRKYRYCKKCNENIDLVSEKVIKGG,soluble
13,MGSDKIHHHHHHMSRVGFTTSIPVEVILAAGKTPVDLNNVFINSLSPQSMVDLAEEEGYPRNCCGWIKGLYATSLNYDMEALIAVMHGDCSNTQALMETLQLRNKKIIPFAFPFDRERSQLEAQVDKLMQFFEVDMEEVLKARARLEKIRSLCRELDRMTWRDNLVTGQENHYYLLCSSDFNGNPAEFEAELHSFVEEAGKRRPIQEEVRLAYIGVPPIFTDLHQLLELMGARVVFNEVQRQFSMPVESSDIIEQYLHYTYPYGAFARLEDIEEQLAVRDVQGVIHYTQTFCFRQIEDLIFRERLKIPFLTLEGDRPGKVDARSRMRLESFVSMLKK,not soluble
14,MEIELICICCPKGCHLKVDDKSLRVEGNNCPRGAEYGVNEITNPVRTITSTVKVEKGEAVIVPVKTKEPIPKKLTMGCMEEINKAVINAPVKIGDVVIKNVLGTGIDVVATKNVSGI,soluble
15,MEKRGKVWLAVSGLVATKDGRWLFVKKKYSGLKGKWSLPAGFVNEGETVDEAVKREVLEETGIVAHVKGIIGVRSGVIRNEISDNMIIFLLEPEGENIIIQEKELSEVAFLHPDKIVDDPNTSVLIKYLLEGRSELHLEVDKTLNPGEPFGYTAYHVFTARAKERGKE,not soluble
16,MGYNKPAAWKPLDRTDWDVSFSYAYGYDEAQFGGRLAVDGDVSTTWFTWGVVSAGECWWATTLPAPTHLTGFSLTRQTTFGSSYNVREAKVKVKKEGDTEWTEAGLFRFGSFKGNDPQYAVFIPAVENVKEFRIDIVSPADFTGFAELDLYQLEHHHHHH,soluble
17,MKLKNTLLASALLSAMAFSVNAATELTPEQAAAVKPFDRVVVTGRFNAIGEAVKAVSRRADKEGAASFYVVDTSDFGNSGNWRVVADLYKADAEKAEETSNRVINGVVELPKDQAVLIEPFDTVTVQGFYRSQPEVNDAITKAAKAKGAYSFYIVRQIDANQGGNQRITAFIYKKDAKKRIVQSPDVIPADSEAGRAALAAGGEAAKKVEIPGVATTASPSSEVGRFFETQSSKGGRYTVTLPDGTKVEELNKATAAMMVPFDSIKFSGNYGNMTEVSYQVAKRAAKKGAKYYHITRQWQERGNNLTVSADLYKLEHHHHHH,not soluble
18,MGSDKIHHHHHHMSRAERLIELMITINAKRSFTAGELAEEFSVSKRTILRDLQVLESIGFPLYSKVGAAGGYHVLKERILPPIAFSESEVKSIFFAYQSLEYYNDLPFEQETISVLKKFLNCIPNDIQYNIENIRRKFVFWTPDRHCSTPLLKELFNIVMNEFTIKIEYSSKQKNSVRTIVPIGLYAMNGLWYCPAYCIKSESIKEFRVDRIVKILSIENLSSKKYKVLSSIHDYLKNMEVGTDYHIKINLTDEGVKRCETEFLLARGLKILSKGGYIDMYIPKSTLNWVAEYFLTFGKNATIIEPIELKHLIKSKVLELYNHHCI,not soluble
19,MTYHLQGTTGYGLGDSGRETLDRVMARILGTEAALVRGQFVSGTHAIATALFGVLRPGDHFISVTGDPYDTLEEVIGIRGTGQGSLKDFGVSYDSVPLSEEGTIQHSLVSQGIKPNTKMLILQRSRGYAWRNSLPMEQIAAFVAYVREHFPHLIIFVDNCYGELVEKCEPGDVGADLMAGSLIKNLGGSLAPTGGYIAGRQELVEKAACRLTAPGIGGEVGATLSWQLQFFQGLFFSPLEHHHHHH,not soluble
20,MGSDKIHHHHHHMARILIIRFSALGDVAMTIPVVHSLAVQYPQLEITVLSRAVWQPLFQGLPANVSFIGADLTGKHKGLWGLNTLYSELKAKHFDYVADFHHVLRTKYLCLRFRLANIPVASIYKGRVGKEKLVRRRHKVLENQKSSFRRYADVLEKLGFPVLLNFSSIYGDEKGNFAEIEPVTGAKDNLKWIGIAPFAKHMGKIYPIELQEQVVAHFAADPKVKVFLFGGGKSEQEVFDGWVAKYPTVVSMIGKLNMRTELNLMSHLDVMLSMDSANMHLASLVNIPVISVWGATHPYAGFMGWKQLPVNTVQFDLSCRPCSVYGQKPCWRGDYACLREIKPEQVIAKIEGIIN,not soluble
21,RLADRMSQEGWEDPGSSSAQAAAIEHDTFGRDNDGDVILLFTAKDGIAHSPSFDKIKKYLDSLKTDHSDHVDAVTSYFDKRNAQLISKDGTTAFAAVSLRGDGEQTLKDFRAIESDLHPQFPEVTVQVAGSTAVADALDKGMSGDIKRAE,not soluble
22,MSRVAPRDSAAQAASAVAESVRYQGRKASRQGSEQRRQAILDAAMRLIVRDGVRAVRHRAVAAEAQVPLSATTYYFKDIDDLITDTFALFVERNAEALSAFWSSVEGDLQEMAAVLADDPGARGSLVERIVELAVQYVQVQLTERREHLLAEQAFRQEALLNPRLRELADAHQRILSLGAVHFFQVLGSGQPEQDAKVLTSIILQMEYQGLVDGVEQLAVDEMRAILRRYLNLVMGL,soluble
